The values that follow come from article PMC7325720 (The Journal of Infectious Diseases, 2019).

Data set [1] concerns the molecule itself. Put plainly: crystal structure.
The target of data set [2] is T1, MBP-CD74 (CD74 ectodomain fused to maltose binding protein), biotinylated (UniProt P04233 73-296, biotin (EZ-Link Sulfo-NHS-LC-Biotinylation kit)).
T1 sequence (looked up): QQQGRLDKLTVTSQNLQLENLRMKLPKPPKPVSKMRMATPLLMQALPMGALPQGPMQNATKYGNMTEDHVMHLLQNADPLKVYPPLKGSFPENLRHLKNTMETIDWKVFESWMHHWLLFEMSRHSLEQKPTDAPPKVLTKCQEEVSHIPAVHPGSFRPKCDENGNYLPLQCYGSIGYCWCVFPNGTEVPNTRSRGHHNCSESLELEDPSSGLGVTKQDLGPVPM
Put plainly: BLI. Background: In BLI a coated tip is dipped into the sample, and binding shifts an interference pattern.

B1: Entamoeba histolytica macrophage migration inhibitory factor (Eh-MIF) (natural protein)
chain: MPHALITLSADITEEIKKEIAHESMKILSEVIGKPISYCATQVVTSVGGFGGKIVKSAFIDIKSISGLKGKQEGLSDRYCKLLEQKAGIEGGNIYLNFTEMTGNNWGYDHSTF
As for B1, in data set [1], the stoichiometry N – broadly, a count of units in the complex or per binding partner – amounted to 3. Further, the Kd (as a rule, the constant that tells how readily two partners part at equilibrium) in data set [2] was determined as 11.2 nM.

B2: human macrophage migration inhibitory factor (human MIF) (natural protein, UniProt P14174 1-115, looked up)
chain: MPMFIVNTNVPRASVPDGFLSELTQQLAQATGKPPQYIAVHVVPDQLMAFGGSSEPCALCSLHSIGKIGGAQNRSYSKLLCGLLAERLRISPDRVYINYYDMNAANVGWNNSTFA
The molecule B2 had a Kd in data set [2] of 18.2 nM.
